Test results reported in paper PMC6123635, “Molecular basis for governing the morphology of type-I collagen fibrils by Osteomodulin” (Communications Biology, 2018).

B1: Osteomodulin (OMD), human, recombinant with C-terminal FLAG-tag (natural protein, UniProt Q99983 21-421, looked up)
chain: QYETYQWDEDYDQEPDDDYQTGFPFRQNVDYGVPFHQYTLGCVSECFCPTNFPSSMYCDNRKLKTIPNIPMHIQQLYLQFNEIEAVTANSFINATHLKEINLSHNKIKSQKIDYGVFAKLPNLLQLHLEHNNLEEFPFPLPKSLERLLLGYNEISKLQTNAMDGLVNLTMLDLCYNYLHDSLLKDKIFAKMEKLMQLNLCSNRLESMPPGLPSSLMYLSLENNSISSIPEKYFDKLPKLHTLRMSHNKLQDIPYNIFNLPNIVELSVGHNKLKQAFYIPRNLEHLYLQNNEIEKMNLTVMCPSIDPLHYHHLTYIRVDQNKLKEPISSYIFFCFPHIHTIYYGEQRSTNGQTIQLKTQVFRRFPDDDDESEDHDDPDNAHESPEQEGAEGHFDLHYYENQE
notes: osteomodulin (OMD), human, without residues 1-20 (signal peptide), residues 21-421; Its own signal peptide was replaced by the sp1-2 signal peptide for secretion; Carbohydrate is modelled in the crystal structure; Monomer by SEC-MALS; also called full-length OMD; WT OMD; source: Sf9 cells, baculovirus, secreted; not shown: FLAG, C-terminal, kept
B2: OMD E284R/E303R (double mutant in the construct of full-length OMD) (natural protein, human, UniProt Q99983 21-421, looked up)
chain: QYETYQWDEDYDQEPDDDYQTGFPFRQNVDYGVPFHQYTLGCVSECFCPTNFPSSMYCDNRKLKTIPNIPMHIQQLYLQFNEIEAVTANSFINATHLKEINLSHNKIKSQKIDYGVFAKLPNLLQLHLEHNNLEEFPFPLPKSLERLLLGYNEISKLQTNAMDGLVNLTMLDLCYNYLHDSLLKDKIFAKMEKLMQLNLCSNRLESMPPGLPSSLMYLSLENNSISSIPEKYFDKLPKLHTLRMSHNKLQDIPYNIFNLPNIVRLSVGHNKLKQAFYIPRNLRHLYLQNNEIEKMNLTVMCPSIDPLHYHHLTYIRVDQNKLKEPISSYIFFCFPHIHTIYYGEQRSTNGQTIQLKTQVFRRFPDDDDESEDHDDPDNAHESPEQEGAEGHFDLHYYENQE

Columns and labels:
[1] = molecular target: Type-I collagen (VitroCol, human) (human) (UniProt P02452); experiment: SPR; collagen immobilised on CM5 chip at around 8000 RU; OMD or muteins injected (0.125-2 µM), 30 µl/min; PBS pH 7.4, 0.005% Tween-20, 20 °C; KD by steady state analysis; binding response at 2 µM
[2] = molecular target: Type-I collagen (VitroCol, human) (human) (UniProt P02452)
[3] = molecular target: T1, Type-I collagen (VitroCol, human) (human, UniProt P02452 162-1218; P08123 80-1119); experiment: cell-based or functional assay
[4] = molecular target: T1, Type-I collagen (VitroCol, human); experiment: SPR; collagen immobilised on CM5 chip at around 8000 RU; OMD or muteins injected (0.125-2 µM), 30 µl/min; PBS pH 7.4, 0.005% Tween-20, 20 °C; KD by steady state analysis; binding response at 2 µM; details: both partners purified
[5] = molecular target: T1, Type-I collagen (VitroCol, human); experiment: SPR; temperature dependence of the dissociation constant, van't Hoff analysis; values given at 32 °C; details: both partners purified

Type-I collagen (VitroCol, human) (human), sequence (P02452 162-1218, chain 1 of 2): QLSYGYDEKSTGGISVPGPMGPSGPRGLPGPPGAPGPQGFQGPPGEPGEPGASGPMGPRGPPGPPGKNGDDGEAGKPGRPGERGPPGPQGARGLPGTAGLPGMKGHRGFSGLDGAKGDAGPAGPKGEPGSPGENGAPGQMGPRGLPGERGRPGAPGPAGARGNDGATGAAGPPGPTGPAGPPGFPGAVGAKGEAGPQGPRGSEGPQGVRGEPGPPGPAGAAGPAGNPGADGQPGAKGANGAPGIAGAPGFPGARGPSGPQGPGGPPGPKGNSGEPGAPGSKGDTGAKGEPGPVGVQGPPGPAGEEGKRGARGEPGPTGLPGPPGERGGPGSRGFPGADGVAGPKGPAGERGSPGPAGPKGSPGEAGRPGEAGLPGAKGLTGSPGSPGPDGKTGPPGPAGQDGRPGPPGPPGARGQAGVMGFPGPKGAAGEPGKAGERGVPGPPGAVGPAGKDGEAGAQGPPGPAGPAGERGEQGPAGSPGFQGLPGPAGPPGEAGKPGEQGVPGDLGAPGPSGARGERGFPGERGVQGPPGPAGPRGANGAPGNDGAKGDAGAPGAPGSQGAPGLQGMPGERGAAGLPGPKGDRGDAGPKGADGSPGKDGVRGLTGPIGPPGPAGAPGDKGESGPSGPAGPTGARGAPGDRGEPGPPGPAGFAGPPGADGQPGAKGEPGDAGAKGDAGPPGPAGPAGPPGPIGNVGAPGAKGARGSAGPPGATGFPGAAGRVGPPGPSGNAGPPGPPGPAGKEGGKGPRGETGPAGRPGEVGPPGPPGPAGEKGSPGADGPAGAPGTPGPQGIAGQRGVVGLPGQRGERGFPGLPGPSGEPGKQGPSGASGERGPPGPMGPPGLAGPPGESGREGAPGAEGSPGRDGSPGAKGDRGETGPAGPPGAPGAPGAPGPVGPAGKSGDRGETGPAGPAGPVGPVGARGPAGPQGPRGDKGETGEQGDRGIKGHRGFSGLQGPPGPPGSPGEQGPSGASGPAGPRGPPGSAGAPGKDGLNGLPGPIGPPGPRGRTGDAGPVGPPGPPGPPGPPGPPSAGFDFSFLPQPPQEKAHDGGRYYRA
Type-I collagen (VitroCol, human) (human), sequence (P08123 80-1119, chain 2 of 2, further chain): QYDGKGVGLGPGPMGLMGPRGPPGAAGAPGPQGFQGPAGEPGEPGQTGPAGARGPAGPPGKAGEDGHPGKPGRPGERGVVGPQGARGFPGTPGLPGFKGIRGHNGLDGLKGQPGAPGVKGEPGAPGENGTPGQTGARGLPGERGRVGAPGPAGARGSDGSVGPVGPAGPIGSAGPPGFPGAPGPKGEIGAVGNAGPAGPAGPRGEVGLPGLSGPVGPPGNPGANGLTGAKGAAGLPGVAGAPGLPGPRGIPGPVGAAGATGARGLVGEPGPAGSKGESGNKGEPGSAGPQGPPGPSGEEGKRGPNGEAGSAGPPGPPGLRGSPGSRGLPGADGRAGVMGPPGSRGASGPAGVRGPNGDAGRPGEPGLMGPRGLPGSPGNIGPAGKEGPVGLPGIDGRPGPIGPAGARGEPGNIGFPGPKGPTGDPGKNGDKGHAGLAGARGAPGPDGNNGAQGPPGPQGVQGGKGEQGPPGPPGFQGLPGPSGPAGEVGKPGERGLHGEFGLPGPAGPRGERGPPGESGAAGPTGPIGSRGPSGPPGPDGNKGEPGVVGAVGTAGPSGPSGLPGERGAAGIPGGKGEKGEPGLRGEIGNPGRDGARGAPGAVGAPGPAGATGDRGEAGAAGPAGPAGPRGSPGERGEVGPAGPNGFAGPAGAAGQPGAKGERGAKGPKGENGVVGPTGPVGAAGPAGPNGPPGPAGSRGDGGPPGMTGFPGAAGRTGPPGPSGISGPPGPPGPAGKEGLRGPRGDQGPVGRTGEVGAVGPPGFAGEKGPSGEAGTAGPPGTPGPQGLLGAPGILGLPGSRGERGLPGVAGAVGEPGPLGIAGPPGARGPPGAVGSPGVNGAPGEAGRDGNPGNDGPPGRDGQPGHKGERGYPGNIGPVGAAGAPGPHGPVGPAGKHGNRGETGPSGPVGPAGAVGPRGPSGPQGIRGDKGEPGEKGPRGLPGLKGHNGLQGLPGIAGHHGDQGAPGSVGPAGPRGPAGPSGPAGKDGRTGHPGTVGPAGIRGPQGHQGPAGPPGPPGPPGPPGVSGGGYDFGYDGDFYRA
T1 sequence (P02452 162-1218, chain 1 of 2): as the sequence (P02452 162-1218, chain 1 of 2) above
T1 sequence (P08123 80-1119, chain 2 of 2): as the sequence (P08123 80-1119, chain 2 of 2, further chain) above

Molecule	Binding (RU) at 2 µM [1] [RU]	Kd [1] [µM]	IC50 (µM) of inhibition of collagen fibril formation (normalized kobs, 1 µM collagen, PBS pH 7.4, 30 °C) [2] [μM]	also measured
chOMD D254R (from UniProt Q99983 117-364)	74.8	22.3	–	–
chOMD E311R (from UniProt Q99983 117-364)	22.6	5.48	–	–
chOMD D271R (from UniProt Q99983 117-364)	71	25.6	–	–
chOMD E225R (from UniProt Q99983 117-364)	106	29.1	–	–
chOMD E284R/E303R (from UniProt Q99983 117-364)	–	–	2.18	kobs (per h) of collagen fibril formation with 0, 0.016, 0.08, 0.4, 2 and 10 μM chE284R/E303R (1.00 down to 0.65) [2]: 1 per h
Chimeric OMD (chOMD): N-terminal region of the leucine-rich repeat domain of internalin B fused to a large portion of OMD (from UniProt Q99983 117-364)	118	25.4	0.22	kobs (per h) of collagen fibril formation with 0, 0.016, 0.08, 0.4, 2 and 10 μM chOMD (0.89 down to 0.00) [2]: 0.89 per h
chOMD E303A (from UniProt Q99983 117-364)	–	–	0.37	kobs (per h) of collagen fibril formation with 0, 0.016, 0.08, 0.4 and 2 μM chE303A (1.32 down to 0.51; n.d. at 10 μM) [2]: 1.32 per h
chOMD E284R (from UniProt Q99983 117-364)	22.3	32000	0.61	kobs (per h) of collagen fibril formation with 0, 0.016, 0.08, 0.4, 2 and 10 μM chE284R (0.90 down to 0.00028) [2]: 0.9 per h
chOMD E173R (from UniProt Q99983 117-364)	118	51.4	–	–
chOMD E303R (from UniProt Q99983 117-364)	3.7	72.4	1.87	kobs (per h) of collagen fibril formation with 0, 0.016, 0.08, 0.4, 2 and 10 μM chE303R (1.35 down to 0.10) [2]: 1.35 per h
chOMD N278R (from UniProt Q99983 117-364)	47.4	14.3	–	–
chOMD E284A (from UniProt Q99983 117-364)	57.4	78.3	0.32	kobs (per h) of collagen fibril formation with 0, 0.016, 0.08, 0.4, 2 and 10 μM chE284A (1.02 down to 0.00003) [2]: 1.02 per h
B1	–	–	–	IC50 (µM) of inhibition of collagen fibril formation (normalized kobs, 1 µM collagen, PBS pH 7.4, 30 °C) [3]: 0.08 μM; Kd [4]: 24.6 µM; Kd [5]: 12 µM; dH [5]: 7.9 kcal/mol
B2	–	–	–	IC50 (µM) of inhibition of collagen fibril formation (normalized kobs, 1 µM collagen, PBS pH 7.4, 30 °C) [3]: 0.29 μM
